Test results taken from doi:10.1101/2020.06.27.175620 (bioRxiv, 2020).

B1: cytochrome b of CIII2 (natural protein, Rhodobacter capsulatus)
chain: MSGIPHDHYEPKTGIEKWLHDRLPIVGLVYDTIMIPTPKNLNWWWIWGIVLAFTLVLQIVTGIVLAMHYTPHVDLAFASVEHIMRDVNGGWAMRYIHANGASLFFLAVYIHIFRGLYYGSYKAPREITWIVGMVIYLLMMGTAFMGYVLPWGQMSFWGATVITGLFGAIPGIGPSIQAWLLGGPAVDNATLNRFFSLHYLLPFVIAALVAIHIWAFHTTGNNNPTGVEVRRTSKADAEKDTLPFWPYFVIKDLFALALVLLGFFAVVAYMPNYLGHPDNYVQANPLSTPAHIVPEWYFLPFYAILRAFAADVWVVILVDGLTFGIVDAKFFGVIAMFGAIAVMALAPWLDTSKVRSGAYRPKFRMWFWFLVLDFVVLTWVGAMPTEYPYDWISLIASTYWFAYFLVILPLLGATEKPEPIPASIEEDFNSHYGNPAE
B2: Rieske FeS protein of CIII2 (natural protein, Rhodobacter capsulatus)
chain: MSHAEDNAGTRRDFLYHATAATGVVVTGAAVWPLINQMNASADVKAMASIFVDVSAVEVGTQLTVKWRGKPVFIRRRDEKDIELARSVPLGALRDTSAENANKPGAEATDENRTLPAFDGTNTGEWLVMLGVCTHLGCVPMGDKSGDFGGWFCPCHGSHYDSAGRIRKGPAPRNLDIPVAAFVDETTIKLG

Tests used:
[1] = target: the molecule itself; assay: cryo-EM structure
[2] = target: B1; assay: cryo-EM structure

B1
binding result [1]: binds

B2
binding result [2]: binds
